# Test results as given in patent US20190060324A1, “POLYNUCLEOTIDE-POLY(DIOL) CONJUGATES, PROCESS OF PREPARATION AND USES THEREOF” (THE ROYAL INSTITUTION FOR THE ADVANCEMENT OF …, priority 2014, published 2019).
# Experiments:
# [1] = tested on: HeLa cells (human cervical cancer); test: MTS cytotoxicity assay; assay type: cell-based; conditions: quadruplicate, read-out: inhibitory concentration (IC50), MTS assay
# Method: The cytotoxicity of micelles was assessed using the CellTiter96 kit from Promega according to the manufacturer's instructions. Briefly, HeLa cells (human cervical cancer) were seeded at a density of 10000 cells per well in a 96-well plate in DMEM media (Invitrogen) supplemented with 10% FBS and AB/AM. […] Cells were incubated for 24, 48, and 72 h in 5% CO2 at 37° C. After the incubation period, the MTS reagent was added to each well and further incubated for 2 h in 5% CO2 at 37° C. Subsequently, 96-well plates were allowed to equilibrate at room temperature and the absorbance was read at 490 nm using a BioTek Epoch micro-plate reader. All quantifications were done using GraphPad Prism 5 software.
# [2] = tested on: primary B-CLL lymphocytes; test: Cleaved caspase-3 apoptosis assay; assay type: cell-based, human; conditions: primary patient CLL cells, 24 and 48 h
# Method: Primary B-CLL lymphocytes were maintained in RPMI complemented with 10% fetal bovine serum (FBS). BMS2 stromal cell line were maintained in Dulbecco's modified eagle medium (DMEM) supplemented with 10% FBS.BMS2 cells were plate at 70×10^4 cells/ml in 24 well plates before coculture with primary B-CLL lymphocytes and incubate at 37° C., 5% C02.
# For apoptosis assays, 3×10^6 B-CLL lymphocytes were plated in the presence or absence of stromal cell (BMS2) and incubate 1 h at 37° C., 5% CO2. Cells were then treated with vehicle, micelle, BKM120, and micelle encapsulated BKM120 for 24 and 48 h.
# Cells were harvested, washed with PBS then fixed 10 min with 1% paraformaldehyde. After washing, cells were permeabilized and nonspecific sites blocked in PBS containing 3% FBS and 0.01% triton X100. Cells were then incubated 1 h with an anti-caspase-3 FITC conjugated antibody then analyzed with a FACSCalibur flow cytometer. (See FIG. 16).
# [3] = Fluorescence of encapsulated Nile Red; assay type: physicochemical; conditions: conjugate 10 μM in TAMg, excitation 535 nm
# Method: DNA-conjugates (10 μM) in TAMg buffer (60 μL) were thermally annealed (95 to 4° C., 4 hours). The samples were transferred to glass vials and 1.5 μL of Nile Red solution ([…], acetone) was added, to give a final Nile Red concentration of 2.5 μM. The samples were vortexed briefly, sealed and incubated overnight at room temperature in the absence of light. Fluorescence spectra were recorded at room temperature in a 50 μL quartz cuvette using an excitation wavelength of 535 nm, and monitoring emission between 560 and 750 nm, with excitation and emission slit widths both set at 10 nm.
# The sequence-specific self-assembly was also assessed using encapsulation of Nile Red (FIG. 5). In this case a small increase in fluorescence was seen as the block size increased from one to three HE units, consistent with a degree of intramolecular collapse of adjacent HE units, generating progressively larger hydrophobic domains as the block size increases, akin to beads on a string. […] A small, but repeatedly measurable, […] of the maximum emission from the bola-amphiphile (640 nm) with respect to the linear amphiphile (645 nm) was also observed, which is indicative of Nile Red in a more polar environment P. Greenspan, S. D. Fowler, J. Lipid Res. 1985, 26, 781-789). […]
# [4] = Dynamic light scattering of DNA-conjugate micelles (hydrodynamic radius, self-assembly); assay type: physicochemical; conditions: 25° C.; for Single-stranded Rh (hydrodynamic radius by DLS): 10 μM in TAMg buffer; for Single-stranded Rh (hydrodynamic radius by DLS) / Double-stranded Rh (hydrodynamic radius by DLS): mean of at least triplicate ± SD; for self-assembly / scattering by DLS: 10 μM in magnesium containing (TAMg) buffer
# Method: The conjugates described herein can be further characterized with regard to their self-assembly behavior. To probe the self-assembly in solution, dynamic light scattering (DLS) was used to determine the presence, and hydrodynamic radius, of micellar aggregates.
# Dynamic Light Scattering (DLS) experiments were carried out using a DynaPro™ Instrument from Wyatt Technology. A cumulants fit model was used to confirm the presence and determine the size of a monomodal population of micellar aggregates. Sterile water and TAMg buffer were filtered using a 0.45 μm nylon syringe filter before use for DLS sample preparation. All measurements were carried out at 25° C.
# This size correlates with DNA-based spherical micelles and is consistent with the tight packing of the HE chains in a hydrophobic core with a charged corona made up of DNA.
# To investigate the effect of block pattern on the amphiphilic self-assembly in solution, DLS measurements were carried out for the HE/HEG series. Samples were annealed in TAMg buffer at 10 μM, and measured at 25° C. […] Furthermore, the effect of the positioning of the blocks with respect to the oligonucleotide portion also appears to be a major factor in the self-assembly: the terminal HE6 results in micellization, whereas a central HE6 block prevents aggregation.
# [5] = tested on: complement strand (Acomp); test: Thermal denaturation of duplexes with complement strand by UV absorption; native PAGE; assay type: physicochemical; conditions: between DNA and HE12-DNA, duplex with Acomp 2.5 μM in TAMg
# Method: The hybridization of the DNA amphiphiles to their complement strands was confirmed by measurement of the thermal denaturation of the duplexes by UV absorption. For each experiment equimolar amounts of DNA amphiphile and complement strand (Acomp, see Table 1) were combined in TAMg buffer to give a final volume of 150 μL with a duplex concentration of 2.5 μM. Samples were thermally annealed (95 to 4° C., 4 hours) before transfer to a quartz cuvette. Absorbance at 260 nm was monitored over the appropriate temperature range. Typical sigmoidal melting curves were obtained for the hybridization of the complementary strand Acomp to DNA control, discrete (HE-HEG)6-DNA and HE12-DNA micelles. […] Native Polyacrylamide Gel Electrophoresis (PAGE) was carried out at room temperature for 2 hours at a constant voltage of 250V. Sample loading was 0.01 OD260 DNA per lane. Single-stranded samples were annealed (95 to 4° C., 4 hours) prior to loading on the gel to promote uniform assembly. Double-stranded samples were similarly annealed (with Acomp, see Table 1) to provide 25 μL of 10 μM duplex in 1×TAMg. The DNA bands were visualized by incubation with GelRedTM. Thermal denaturation and gel electrophoresis concluded that all of the HEx-DNA molecules retained their ability to hybridize to a complementary DNA strand, highlighting the orthogonal nature of these differing modes of intermolecular self-assembly. […]
# [6] = BKM120 loading of HE12-DNA micelles by RP-HPLC and UV-Vis; assay type: physicochemical; conditions: HPLC peak areas, standard curves
# Method: BKM120 was prepared as a 10 mM working solution in chloroform. Loading of the structures was achieved by adding 20 μL of BKM120 to a glass vial, followed by solvent evaporation in open air to achieve a thin drug film. HE12-DNA micelles were pre-assembled in 1×TAMg (100 μL at […]) and subsequently added to the drug film. The final solution was 100 μL with excess BKM120 (2 mM). The mixture was vortexed heavily to allow re-suspension of the drug molecules, and was incubated overnight at room temperature. Alternatively, drug loading could also be obtained by a different method. […]
# RP-HPLC and UV-Vis spectroscopy were used to determine the amount of BKM120 loaded in the DNA micelles, For HPLC, 60 μL of the purified supernatant was injected into a Hamilton PRP-1 5 μm 100 Å 2.1×150 mm column. […] The products were also detected using a drug-only channel at 320 nm (BKM 120 maximum absorption peak).
# For UV-Vis spectroscopy experiments, 20 μL of the purified supernatant was mixed with 80 μL of DMSO, and the absorbance (200 nm-500 nm) was measured. The presence of BKM120 was monitored by the absorbance at 320 nm using a Biotek Synergy HT well-plate spectrometer. […]
# The amount of incorporated BKM 120 was calculated by measuring HPLC peak areas of BKM 120 and DNA. […]
Molecule,Single-stranded Rh (hydrodynamic radius by DLS) [4] [nm],self-assembly / scattering by DLS [4],Double-stranded Rh (hydrodynamic radius by DLS) [4] [nm],other results
Nc1cc(C(F)(F)F)c(-c2cc(N3CCOCC3)nc(N3CCOCC3)n2)cn1 [BKM120],,,,IC50 [1]: 2000 nM; amount of caspase (cleaved caspase-3) [2]: same amount
"HEG6-HE6-DNA: HHHHHHDDDDDDTTTTTCAGTTGACCATATA; D dodecane-diol, H hexaethyloxy glycol residues (dodecane-diol and hexaethylene glycol units conjugated, chemistry not fully specified)",,,,maximum emission of encapsulated Nile Red [3]: 640 nm
"HE6-HEG6-DNA: DDDDDDHHHHHHTTTTTCAGTTGACCATATA; D dodecane-diol, H hexaethyloxy glycol residues (dodecane-diol and hexaethylene glycol units conjugated, chemistry not fully specified)",9.7±0.9,strong scattering,10.0 ± 0.2,Single-stranded Rh (hydrodynamic radius by DLS) ([4]; listed as HE6-HEG6): 9.7 ± 0.1 nm; maximum emission of encapsulated Nile Red [3]: 645 nm
"HE6-DNA: DDDDDDTTTTTCAGTTGACCATATA; D = residue from DMT-dodecane-diol amidite (dodecane-diol (HE) units conjugated, chemistry not fully specified)",6.5±0.4,strong scattering,5.6 ± 0.1,Single-stranded Rh (hydrodynamic radius by DLS) ([4]; listed as HE6): 6.5 ± 0.4 nm
"(HE2-HEG2)3-DNA: DDHHDDHHDDHHTTTTTCAGTTGACCATATA; D dodecane-diol, H hexaethyloxy glycol residues (dodecane-diol and hexaethylene glycol units conjugated, chemistry not fully specified)",,did not exhibit self-assembly,,
"HE12-DNA: DDDDDDDDDDDDTTTTTCAGTTGACCATATA; D = residue from DMT-dodecane-diol amidite (dodecane-diol (HE) units conjugated, chemistry not fully specified)",11.3±0.1,,11.3 ± 0.1,Single-stranded Rh (hydrodynamic radius by DLS) ([4]; listed as HE12): 11.3 ± 0.7 nm; change in melting temperature [5]: 3 °C; BKM120 molecules incorporated per HE12-DNA conjugate unit [6]: 8
"(HE3-HEG3)2-DNA: DDDHHHDDDHHHTTTTTCAGTTGACCATATA; D dodecane-diol, H hexaethyloxy glycol residues (dodecane-diol and hexaethylene glycol units conjugated, chemistry not fully specified)",,did not exhibit self-assembly,,
"(HE-HEG)6-DNA: DHDHDHDHDHDHTTTTTCAGTTGACCATATA; D dodecane-diol, H hexaethyloxy glycol residues (dodecane-diol and hexaethylene glycol units conjugated, chemistry not fully specified)",,did not exhibit self-assembly,,
